Source: the supplement of paper PMC9732359
± gives the uncertainty stated by the source.

Assay: protein stability index of a GFP-peptide fusion (yeast GPS) (PSI 1-4); higher = more stable; sorted into four equal gates, so the index is relative within each strain
How it was run: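 The protein stability index of a peptide was calculated by multiplying its read frequency in each gate by that gate's number and adding the products. The peptides were tiled 17-residue stretches of yeast proteins, fused downstream of GFP on a Cherry-expressing plasmid and carried in yeast as a pooled library. Mid-log cultures in leucine-free medium were sorted into four equal gates by GFP/Cherry ratio, and each gate's plasmids were PCR-amplified and Illumina-sequenced.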

Sequence | protein stability index (doa10∆) | protein stability index (pdr5∆) | protein stability index (san1∆) | protein stability index (ubr1∆)
KTPEEVEVYAKIFWERL [ISW2] | 1.74 ± 0.081 | 2.91 ± 0.17 | 3.03 ± 0.17 | 3.29 ± 0.085
ETQLKVVTRSKEAFEEE [SMC1] | – | 3.25 ± 0.15 | – | 3.39 ± 0.085
STSNALKVLSGDEGYNE [SNF12] | 3.39 ± 0.11 | 3.24 ± 0.11 | 3.04 ± 0.059 | 3.5 ± 0.13
IFSVHGNTVVDGEGKVD [YCG1] | 3.12 ± 0.2 | 3.46 ± 0.18 | – | –
EEFAYVDPARRQILFKY [MED6] | 2.57 ± 0.085 | 2.19 ± 0.061 | 2.02 ± 0.09 | 2.06 ± 0.053
FSNRFLPVASPFHSHLL [FAS1] | 2.5 ± 0.13 | 2.98 ± 0.11 | 3.19 ± 0.27 | 2.76 ± 0.098
LKLENLHVVSKSSIEKD [SIN4] | 3.13 ± 0.094 | 2.74 ± 0.11 | 3.14 ± 0.1 | 3.12 ± 0.068
RENGKGGQIAHILFQNN [ROX3] | 1.88 ± 0.062 | 2.32 ± 0.06 | 2.75 ± 0.061 | 2.48 ± 0.12
VSSTIPRETIPFLHLRK [FAS2] | 2.93 ± 0.27 | 2.35 ± 0.13 | 2.79 ± 0.16 | 2.6 ± 0.15
TPSQIGVLLRDAHGVTQ [RPS13] | 1.74 ± 0.083 | 1.81 ± 0.15 | 1.91 ± 0.13 | 2.05 ± 0.037
KDGGDKPPSSAFNFSFN [YAR002W/NUP60] | 3.18 ± 0.066 | 3.22 ± 0.054 | 3.17 ± 0.052 | 3.29 ± 0.061
NNIKNGTNNISQHGQGN [YDL088C/ASM4] | 2.93 ± 0.046 | 2.87 ± 0.033 | 3.05 ± 0.034 | 3.06 ± 0.021
LVSANNDNNSPHTPVTR [YLR018C/POM34] | 2.63 ± 0.12 | 2.85 ± 0.072 | 2.92 ± 0.08 | 2.95 ± 0.12
LYKIFSYALSMEKDKLK [SNU114] | 1.84 ± 0.097 | 1.33 ± 0.052 | 1.63 ± 0.17 | 1.65 ± 0.049
SVPTNSADAPNPNNVNV [RET1] | 3.24 ± 0.084 | 3.14 ± 0.081 | 3.26 ± 0.049 | 3.23 ± 0.058
AIVFEEIKNWISDIPYV [YMR129W/POM152] | 1.36 ± 0.043 | 1.42 ± 0.045 | 1.36 ± 0.075 | 1.72 ± 0.054
EQFKMVSMITDHNALPQ [POP1] | 3.04 ± 0.18 | 3.05 ± 0.11 | 2.28 ± 0.27 | 2.85 ± 0.13
VNHLLLFAREIAKSQDK [DPB4] | 2.06 ± 0.15 | 2.85 ± 0.16 | 2.76 ± 0.14 | 2.08 ± 0.068
RYLTLLSNEFTATNSKG [ECM29] | 2.89 ± 0.073 | 2.76 ± 0.064 | 2.61 ± 0.088 | 2.83 ± 0.052
VEQTAEVTIEDALKVVL [RPS12] | 3.34 ± 0.079 | 3.36 ± 0.078 | 3.19 ± 0.049 | 3.21 ± 0.045
FEYVLYPSKTLKTDGVR [FAS2] | 2.42 ± 0.08 | 2.96 ± 0.069 | 2.26 ± 0.099 | 2.75 ± 0.081
LAVCDELGNMTMLITGQ [SIN4] | 2.21 ± 0.06 | 2.55 ± 0.046 | 2.23 ± 0.061 | 2.02 ± 0.045
TSQYGTPSTETAASVFK [PRE3] | 1.71 ± 0.046 | 2.29 ± 0.042 | 2.1 ± 0.047 | 2.27 ± 0.045
IRKYGLNICRQCFREKA [RPS29A] | 1.59 ± 0.067 | 1.67 ± 0.045 | 1.32 ± 0.11 | 1.73 ± 0.065
GCNNLIKNISNRVGLTL [ARP9] | 3.28 ± 0.098 | 2.63 ± 0.066 | 3.33 ± 0.069 | 3.14 ± 0.057
IPTLAIDSVEVETNTTV [RPB3] | 2.82 ± 0.22 | 2.44 ± 0.16 | 2.94 ± 0.083 | 2.98 ± 0.059
